From US20220273710A1 (AUTOLUS, published 2022)
Changes are numbered by the printed parent chain.

B1: Polatuzumab (antibody, V domains shown)
VH: EVQLVESGGGLVQPGGSLRLSCAASGYTFSSYWIEWVRQAPGKGLEWIGEILPGGGDTNYNEIFKGRATFSADTSKNTAYLQMNSLRAEDTAVYYCTRRVPIRLDYWGQGTLVTVSS
VL: DIQLTQSPSSLSASVGDRVTITCKASQSVDYEGDSFLNWYQQKPGKAPKLLIYAASNLESGVPSRFSGSGSGTDFTLTISSLQPEDFATYYCQQSNEDPLTFGQGTKVEIKR
notes: polatuzumab'; also called humanised anti-CD79b 2F2; anti-CD79b antibody polatuzumab
B2: 3H2 (antibody, mouse IgG2a, V domains shown)
VH: AVQLVESGGGLVQPKESLKLSCAASGFTFSHTAMYWVRQAPGKGLECVARIRIQPKNYATYYADSVKGRFTISRDDSKSMVYLQMDNLKTEDTAMYYCTAAGFGFDYWGQGVMVTVSS
VL: DVVLTQTPVSLSVTLGDQASISCRSSQSLEYSDGNTYLEWYLQKPGQSPQLLIYEVSKRFSGVPDRFIGSGSGTDFTLKISRVEPEDLGIYYCLQATHDPFTFGSGTKLEIK
notes: also called 3H2 antibody; clone 3H2
B3: 2E8 (antibody, mouse IgG2a, V domains shown)
VH: AVQLVESGGGLVQPKESLKISCAASGFTFSNAAMYWVRQAPGKGLEWVARIRTKPNNYATNYADSVKGRFTISRDDSKSMVYLQMDNLKTEDTAMYYCTYYDGSSYAMDAWGQGTSVTVSS
VL: B2 VL with N35Y, E39D, K58N, I90V, L94F, F101Y, S105A
notes: also called 2E8 antibody; clone 2E8
B4: 7G4 (antibody, mouse IgG2a, V domains shown)
VH: B3 VH
VL: B2 VL with N35Y, E39D, V56I, K58N, I90V, L94F, F101Y, S105A
notes: also called 7G4 antibody; clone 7G4

Biological target: T1, Recombinant purified CD79b (R&D systems) (human, UniProt P40259 29-159)
T1 construct: Bought protein
T1 sequence: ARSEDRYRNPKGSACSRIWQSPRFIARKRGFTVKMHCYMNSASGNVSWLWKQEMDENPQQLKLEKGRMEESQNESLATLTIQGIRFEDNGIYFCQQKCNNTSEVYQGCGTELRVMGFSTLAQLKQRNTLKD
Assay: SPR, Biacore 8K, antibody immobilised on CM5 chip, CD79b as analyte, 25° C, 1:1 Langmuir fit
Text: Recombinant anti-CD79b antibodies Polatuzumab and newly generated antibodies 2E8, 3H2, and 7G4 were immobilised on individual flow cells on a Series S CM5 sensor chip (GE Healthcare) to a density of 150-280 RU using a Biacore 8K instrument. HBS-P+buffer was used as running buffer under all experimental conditions. Recombinant purified CD79b (R&D systems) at known concentrations was used as the ‘analyte’ and injected over the respective flow cells with 150s contact time and 300s dissociation, at 30 μl/minute of flow rate and a constant temperature of 25° C. In each experiment, flow cell 1 was unmodified and used for reference subtraction. A ‘0 concentration’ sensorgram of buffer alone was used as a double reference subtraction to factor for drift. Data were fit to a 1:1 Langmuir binding model.

**Q.** How did the Kd turn out when B1 was run?
**A.** 6.88 nM

**Q.** And the koff?
**A.** 0.00806 s⁻¹

**Q.** And the kon?
**A.** 1.17e+06 M⁻¹ s⁻¹

**Q.** What does the source list for B2?
**A.** Kd: 2.62 nM; koff: 0.00431 s⁻¹; kon: 1.64e+06 M⁻¹ s⁻¹

**Q.** Which Kd does the source give for B3 here?
**A.** 7.11 nM

**Q.** And the koff?
**A.** 0.0805 s⁻¹

**Q.** And the kon?
**A.** 1.13e+07 M⁻¹ s⁻¹

**Q.** How did the Kd turn out when B4 was run?
**A.** 3.1 nM
